Measurements from publication PMC9992347 (Molecular cell, 2023).
Where a chain is given by its changes, count along the chain named. Names may count otherwise.

B1: SPOP^1-374 W22R (natural protein, human, UniProt O43791 1-374, looked up)
chain: MSRVPSPPPPAEMSSGPVAESRCYTQIKVVKFSYMWTINNFSFCREEMGEVIKSSTFSSGANDKLKWCLRVNPKGLDEESKDYLSLYLLLVSCPKSEVRAKFKFSILNAKGEETKAMESQRAYRFVQGKDWGFKKFIRRDFLLDEANGLLPDDKLTLFCEVSVVQDSVNISGQNTMNMVKVPECRLADELGGLWENSRFTDCCLCVAGQEFQAHKAILAARSPVFSAMFEHEMEESKKNRVEINDVEPEVFKEMMCFIYTGKAPNLDKMADDLLAAADKYALERLKVMCEDALCSNLSVENAAEILILADLHSADQLKTQAVDFINYHASDVLETSGWKSMVVSHPHLVAEAYRSLASAQCPFLGPPRKRLKQS
B2: SPOP^1-374 E47K (natural protein, human, UniProt O43791 1-374, looked up)
chain: B1 chain with R22W, E47K
B3: SPOP^1-374 W131G (natural protein, human, UniProt O43791 1-374, looked up)
chain: B1 chain with R22W, W131G

Tests used:
cryo-EM structure = target: the molecule itself; assay: cryo-EM structure
[1] = target: the molecule itself; assay: small-angle X-ray scattering

Row | Protein | binding result (cryo-EM structure) | binding result [1]
1 | B1 | binds | 
2 | B2 | binds | 
3 | B3 |  | binds
